Test results published in the RNAGym collection of RNA variant scans (doi:10.1073/pnas.2313332121).

B1: TPR t1 (parent)
chain: GACCAAUCUGCCCUCAGAGCUCGAGAACAUCUUCGGAUGCAGAGGAGGCAGGCUUCGGUGGCGCGAUAGCGCCAACGUCCUCAACCUCCAAUGCAUCCCACCACAUGAUGAUGCCUGAAGAGCCUUGGUUUUUUG

Variants of: B1
Experiment: polymerase ribozyme fitness, log enrichment relative to wild type (log ratio); higher = more active; in vitro selection for triplet polymerase activity
Outline: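 Only genotypes with ≥10 input reads and ≥1 read per output were kept after Illumina sequencing of input and output libraries. These libraries were PCR-built, transcribed mutants of each subunit of a heterodimeric triplet polymerase ribozyme, each put through one triplicate in vitro selection round with frozen incubation at −7 °C, gel excision of extended constructs, streptavidin-bead capture and RT-PCR. Fitness is a logarithmic ratio of genotype enrichment to wild-type enrichment, from inverse-variance-weighted replicate averages, with the logarithm in base 2.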

Variant	polymerase ribozyme fitness (log ratio)
A16U C20A C73G G117U A119U	-5.33
G17U C49U C124G G127C	-0.942
G17C A46G U55C	-5.15
A16G C70U C115A U125C	-2.39
G17A A46C	-3.18
G17A G61U C85A C97U	-4.18
A16C C56G G77U C115G	-3.78
C15U C76U A100U G120C	0.0455
A16C C72A G110U	-3.99
A16G C70A A95C	-4.17
A16U C82A	-2.02
A16U C62G C123A	-3
A18C G60C	-2.9
G17A G52C G60C U81C C115G	-3.56
C15U G42U G120U G127C	-2.69
A16G A29G G44A U87G A121C	-2.16
G17A C80U	-3.53
G17A C80A	-5.66
G17U A41C G61A C89A	-4.06
A18C A43G C114U U129C	-3.16
C15U G47A G113C A121C	-4.25
A18C U78A U112G G122U	-4.43
A16U G47C C49U G61C C82G C89U A91G C115A	-7.61
G17A G63U A90C U112A	-5.03

Variant	polymerase ribozyme fitness (log ratio)
C15U U96A A119G	0.622
G17A G71U	-3.07
A16U G69U A121C	1.22
C15U G47U C49A C86A U106C	-2.3
A16G A75U C123U	-0.477
C15U U54A C80A	-4.07
G17A C49G A50G U106A	-3.86
G17A C20A G61C A119U C124A	-5.19
A16G G60U G107U C124G	-4.06
G17C U21A G39A C72A U112C C115A	-0.984
C15U G120A	-1.08
C15U G120U	-0.697
C15U C56U U87G G113A U130A	-3.68
A18C A95U C124A	-0.947
A18C U32C	-2.05
C15U C53G C64A C104A C124U	-6.1
G17A G60U C97U	-4.13
A18C G93C	-3.24
A18C A43U	0.3
G17A A43U C73G G120A	-3.38
A16C C49G C101A	-4.66
G17C U78A A111U	-6.19
A16C C82U G110A C123G U132A	-4.33
C15U A37C G61C	-3.39

Variant	polymerase ribozyme fitness (log ratio)
G17U G69U A111G U133G	0.0717
A18C G60A U78G G110C U131A	-7.27
A18C G48A A119G G120A U126A	-3.21
A18C G47A A121U	-1.35
A18C G25U A41G C53U C124A	-6.92
G17C A50C U81A C114U G120U	-5.67
A16G G60U A90U	-2.82
A16G C49A C88A C99A C102U C114U	-4.49
A18C A100C	-4.31
C15U C28U A68G G110A	-2.39
A16G C49A A68G C73U	-4.78
A16G C40A C86U A90U A91C U106A U112G	-4.19
C15U C62A C86U A111C U129G	-4.97
C15U G63A C79A C97U U112G	-4.94
A16G G61C	-2.19
A18C C40U G48A C56G A84C C114U	-5.13
C15U G44U C85A C94U G117C A118U	-4.78
C15U A100U G117U	-2.41
G17A G120U	-1.62
A16U C123A	-1.57
A16U C123U	0.19
C15U C73U A83G	-2.56
C15U A18U G44U G69U G117C A121C	-4.92
A16C C89U U106A	-2.64

Variant	polymerase ribozyme fitness (log ratio)
C15U C53A A83C	-1.46
A16U C73U G93C U96A	-4.76
G17A C40U	-3.88
G17C C20A G63U	-4.87
A16G G77A C85G	-3.69
A16G G52A U116C	0.826
A16G G44A C97G U112C U133A	-4.45
A16U C56A	-1.97
G17C C72U U78G U116A A119C G120A	-5.61
C15U A105U	-3.42
A18C G63U	-4.53
G17C A46G C124A	-1.43
A16U C73A	-2.64
C15U G36A A121C	0.213
G17U C49U G93A	-4.22
A16U G69U G71U G117C	-4.04
C15U C34A G69C	-5.57
G17A U116C G120U	-5.7
A18C G117C	-4.33
A18C G44A G61U C85G A121U	-2.31
A16C U87A	-2.49
G17U C40A G48U C70U C99A G113A G117C	-6.87
A16G G47A	-2.15
G17C U54G G61A C94A U112G	-6.29

Variant	polymerase ribozyme fitness (log ratio)
G17A G69C	-3.95
A16C	-2.19
A16G	-0.761
A16U	-1.46
C15U C72A A83C C89U C97U	-3.4
A16U C89U	-1.23
G17A A43G	-3.39
A18G C22G C104A	-5.54
C15U G48A G57A C86A	-3.37
A16G C86U	-1.54
A16C C79U U87A C124U	-0.106
C15U A83G	-1.88
A16U G52U G117A U130C U131G	-4.01
A18G A74C C97A U106A	-6.31
A16U C56U U87A A103U U112A	-4.76
A16U G110A	-2.07
C15U C79A	-2.26
A16C C72A	-3.3
A16G G69U C73A C115U	-1.93
A16U U116C	-0.734
G17A A75G C89A A90G	-3.23
C15U G57U C102A U116G C123G	-4.08
C15U G42A G48A C79U A105C U112A G113U C124A	-4.71
G17U A37C C53A A83U A90U A91C	-3.91

Variant	polymerase ribozyme fitness (log ratio)
G17A A95U	-3.81
C15U A29U C40A A46C	-5.8
C15U G93A	-1.99
C15U U81G C82G A119G G120U C123A	-0.519
C15U G60U	-1.08
A18G C62U A74C	-5.71
G17U C62G A83U C123G	-5.79
C15U C101U	-1.84
C15U C101A	-2.35
G17U U59C A108G A118U	-5.03
C15U A46G G51A C56G U59C G71C U78G U92G C123U	-6.11
A18C C72U G113C	-3.97
G17C G63U	-4.39
A16U A24G C115G	-6.98
G17A G48C	-4.15
A16U C72A	-1.32
A16C C53U	-2.99
C15U G58C G120C	0.694
G17A G71U G122A	-4.15
A16G G48A U126G	-4.19
C15U C53G C82A	-1.78
C15U G71U	-1.38
G17U C20U C49A C73G C115A	-1.32
A16U U92A A111C	-4.66

Variant	polymerase ribozyme fitness (log ratio)
G17A A43U C88A U96A U129A	-3.98
A18C A66U	-5.53
A18G C70A A91C G113A	-2.9
A16U C79U G110A	-2.61
A16U G47U G60U U112G	-1.75
A16U A37U G69U U106C G120U	-0.0765
A16C G45C U59A C72A U112C G135U	-4.45
A16U A29U U54A G63U	-3.53
A16C C115G	-3.37
A18C U112C	-0.328
A18C C62U U87C	-3.61
G17C C72U C88A	-4.4
G17U C72U C89A	-3.71
C15U C73U A74C	-1.46
G17A C79U U106A A111C	-4.21
A18C G48A C94G	-3.96
G17A A46C G63U A74U C89G C102U A105U	-7.26
G17U G60C A121G	-0.0519
C15U U87A	-2.53
A16C C49U G60U U78A	-3.42
A16U G42U C53G G71A G120A	-2.89
G17A C86G	-4.48
A18C A29U C88U C89U C97U	-4.49
